Experimental data taken from US20110076272A1, “THERAPEUTIC METHODS AND COMPOSITIONS” (priority 2009, published 2011).

Legend:
[1] = test system: HFF cells; assay: Transwell co-culture of HFF cells with LOXL2-secreting tumor cell lines; assay type: cell-based, human; conditions: 72 hours co-culture
[2] = test system: CCl4-induced liver fibrosis; assay: CCl4-induced liver fibrosis; assay type: in vivo, mouse; conditions: 30 mg/kg i.p. twice a week
Description: Male BALB/c mice (10-12 weeks old) were obtained from Aragen Biosciences (Morgan Hill, Calif.). Mice were distributed into 4 groups. Mice in 3 of the groups were injected with CCl4 (Sigma-Aldrich, St. Louis, Mo.), and mice in the remaining group were injected with saline.
CCl4 was intraperitoneally administered to mice at 1 ml/kg body weight (CCl4: mineral oil in 1:1 (v/v) ratio) twice weekly for 4 weeks. In the control group, 0.9% saline (saline:mineral oil in 1:1 (v/v) ratio) was administered intraperitoneally using the same dosing regimen.
In the CCl4-treated groups, the first group was treated with AB0023 (diluted in PBS/0.01% Tween-20), the second group was treated with pep4 M64 (diluted in […]) and the third group was treated with vehicle (PBST). Antibodies and vehicle were injected intraperioneally at a dose of 30 mg/kg twice a week. The treatment started a day prior to the first administration of CCl4 and continued until the end of the study. The study was terminated after 4 weeks of CCl4 and antibody administration. Mice were euthanized and sacrificed humanely and the livers were harvested 96 hours after completion of dosing. The livers were snap-frozen for histological and immunohistochemical analyses.
Ten fields (or areas or lobes) for each treatment regimen were randomly selected and stained with Sirius Red. The area used for scoring was 1.7 mm×1.3 mm and contained at least 8 portal triads.
Triads and areas of complete bridging fibrosis were counted. […] The percentages from 10 fields (per treatment) were averaged and standard error was calculated.
For each treatment, five fields were selected and stained with an anti-alpha-smooth muscle actin (aSMA) antibody. aSMA-positive signal in the porto-portal region (threshold area %) was analyzed by Metamorph (Molecular Devices, Downingtown, Pa.). aSMA-positive signal in sections from animals undergoing AB0023-treatment was compared to signal obtained in sections from animals that had been treated with vehicle (PBS).

B1: AB0023: mouse anti-human LOXL2 monoclonal antibody; heavy chain variable region SEQ ID NO:1, light chain variable region SEQ ID NO:2 (antibody, listed as Mus musculus, V domains shown)
VH: MEWSRVFIFLLSVTAGVHSQVQLQQSGAELVRPGTSVKVSCKASGYAFTYYLIEWVKQRPGQGLEWIGVINPGSGGTNYNEKFKGKATLTADKSSSTAYMQLSSLTSDDSAVYFCARNWMNFDYWGQGTTLTVSS
VL: MRCLAEFLGLLVLWIPGAIGDIVMTQAAPSVSVTPGESVSISCRSSKSLLHSNGNTYLYWFLQRPGQSPQFLIYRMSNLASGVPDRFSGSGSGTAFTLRISRVEAEDVGVYYCMQHLEYPYTFGGGTKLEIK
modifications: Heavy chain; Light chain
reduction in VEGF protein expression [1]: 39-46%
reduction in α-SMA levels [1]: 41%
relative decrease in pSMAD2 phosphorylation [1]: 56-94%
aSMA positive myofibroblasts in porto-portal septa [2]: substantial reduction
mortality resulting from injection with CCl4 (survival) ([2]; AB0023 p=0.0029 log rank): prevented
bridging fibrosis in livers ([2]; Sirius Red, AB0023 p=0.002, M64 p=0.127): significantly inhibited
